This is an account of results in PMC12236258.

The assay has as its target SpyCatcher003-A49C labelled with Alexa 555 maleimide. Kind of assay: FRET or BRET; inline mixing cell, SpyTag003-sfGFP (donor) and SpyCatcher003-AF555 (acceptor) each at 10 uM, equimolar, delays 0.02-10 s, emission at 515 nm, double exponential fit; observed rates at one concentration.

In the case of SpyTag003-sfGFP, the fast rate of the double exponential FRET decay (observed, 10 uM each) was 143 s⁻¹; the percent reduction of the donor fluorescence by FRET (20 ms to 10 s after mixing) was over 50%; the slow rate of the double exponential FRET decay (observed, 10 uM each) was 7 s⁻¹.
